In this series the target is T1, AcrIIA13b (shAcrIIA13b) (Staphylococcus haemolyticus, UniProt A0AAX7FLQ9 1-129).
T1 sequence: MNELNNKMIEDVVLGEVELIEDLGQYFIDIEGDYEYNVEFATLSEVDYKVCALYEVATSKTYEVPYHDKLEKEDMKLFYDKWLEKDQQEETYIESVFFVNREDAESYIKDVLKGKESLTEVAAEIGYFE
As to the kind of experiment: EMSA; no Cas9; Cas9 EMSA: 100 mM NaCl, 50 mM Tris/HCl pH 8.0, 100 ug/mL BSA, 37 C (AcrIIA13b step at RT); 99 nM SauCas9, 90 nM sgRNA, 1.4 nM DNA, 4% gel 0.5x TBE. The note with it: protein: recombinant; tags: C-terminal His6 (pET21a); a tag-free version also exists; chain copies: 2; label: none (SYBR Gold stain); single strand, sgRNA hairpins.

B1: SauCas9 sgRNA (structured_RNA)
RNA: GCAGCUGAUCAGGAACAGCGGUUUUAGUACUCUGGAAACAGAAUCUACUAAAACAAGGCAAAAUGCCGUGUUUAUCUCGUCAACUUGUUGGCGAGAUUU
B1: the binding result is recorded as “no binding”.

The values above are taken from publication PMC13147308, “Investigating the molecular mechanisms underlying the anti‐CRISPR function of AcrIIA13b protein”.
